In general, Kd refers to the equilibrium constant for the complex coming apart. Low values mean tighter binding, high ones weaker binding.

In the assay the target is 253BH10 trispecific protein. Nature of the assay: affinity measurement, method not stated.
Chain of 253BH10 trispecific protein (chain, as listed by the source limits assumed, form in doubt): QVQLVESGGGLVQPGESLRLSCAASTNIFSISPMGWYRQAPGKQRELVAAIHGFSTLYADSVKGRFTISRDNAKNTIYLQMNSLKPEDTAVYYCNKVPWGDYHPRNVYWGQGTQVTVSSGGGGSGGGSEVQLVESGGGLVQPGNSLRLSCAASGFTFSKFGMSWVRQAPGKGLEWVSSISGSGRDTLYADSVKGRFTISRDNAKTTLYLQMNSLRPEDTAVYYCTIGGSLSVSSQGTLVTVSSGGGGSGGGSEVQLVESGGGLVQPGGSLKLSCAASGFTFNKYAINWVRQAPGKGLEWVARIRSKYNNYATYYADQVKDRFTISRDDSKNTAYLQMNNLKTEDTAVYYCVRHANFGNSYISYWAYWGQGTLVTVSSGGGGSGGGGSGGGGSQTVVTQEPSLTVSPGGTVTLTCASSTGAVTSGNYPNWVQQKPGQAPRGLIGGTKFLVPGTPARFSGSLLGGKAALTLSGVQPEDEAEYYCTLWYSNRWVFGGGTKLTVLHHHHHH

B1: human BCMA protein (receptor)
chain: MLQMAGQCSQNEYFDSLLHACIPCQLRCSSNTPPLTCQRYCNASVTNSVKGTNA
B1 returned a Kd of 27.7 nM.

The values above are taken from patent publication US20240254250A1 (HARPOON THERAPEUTICS, published 2024).
